Laboratory results: article PMC4860841, “eIF2 interactions with initiator tRNA and eIF2B are regulated by post-translational modifications and conformational dynamics” (Cell Discovery, 2015)

B1: eukaryotic initiation factor 2 α-subunit (eIF2α) (natural protein, Saccharomyces cerevisiae, UniProt P20459 1-304, looked up)
chain: MSTSHCRFYENKYPEIDDIVMVNVQQIAEMGAYVKLLEYDNIEGMILLSELSRRRIRSIQKLIRVGKNDVAVVLRVDKEKGYIDLSKRRVSSEDIIKCEEKYQKSKTVHSILRYCAEKFQIPLEELYKTIAWPLSRKFGHAYEAFKLSIIDETVWEGIEPPSKDVLDELKNYISKRLTPQAVKIRADVEVSCFSYEGIDAIKDALKSAEDMSTEQMQVKVKLVAAPLYVLTTQALDKQKGIEQLESAIEKITEVITKYGGVCNITMPPKAVTATEDAELQALLESKELDNRSDSEDDEDESDDE
modifications: found in the purified protein (Table 1): N-term-ac-S2, pS194, pS292, pS294, pS301
notes: eIF2 α-subunit, encoded by SUI2 in yeast Saccharomyces cerevisiae; Expressed from plasmid pAV1089 [SUI2 SUI3 6xHisGCD22 URA3]; N-terminal acetylation on S2 implies that the first methionine is removed; also called SUI2; source: S. cerevisiae strain GP3511 overexpressing the three eIF2 subunits
B2: eukaryotic initiation factor 2 β-subunit (eIF2β) (natural protein, Saccharomyces cerevisiae, UniProt P09064 1-285, looked up)
chain: MSSDLAAELGFDPALKKKKKTKKVIPDDFDAAVNGKENGSGDDLFAGLKKKKKKSKSVSADAEAEKEPTDDIAEALGELSLKKKKKKTKDSSVDAFEKELAKAGLDNVDAESKEGTPSANSSIQQEVGLPYSELLSRFFNILRTNNPELAGDRSGPKFRIPPPVCLRDGKKTIFSNIQDIAEKLHRSPEHLIQYLFAELGTSGSVDGQKRLVIKGKFQSKQMENVLRRYILEYVTCKTCKSINTELKREQSNRLFFMVCKSCGSTRSVSSIKTGFQATVGKRRRM
modifications: found in the purified protein (Table 1): N-term-ac-S2, pS40, acK89, pS91, pS92, pS112
notes: eIF2 β-subunit, encoded by SUI3 in yeast Saccharomyces cerevisiae; Expressed from plasmid pAV1089 [SUI2 SUI3 6xHisGCD22 URA3]; N-terminal acetylation on S2 implies that the first methionine is removed; also called SUI3; source: S. cerevisiae strain GP3511 overexpressing the three eIF2 subunits

Key:
[1] = molecular target: T1, eukaryotic initiation factor 2 γ-subunit (eIF2γ), His-tagged (Saccharomyces cerevisiae, UniProt P32481 1-527, found in the purified protein (Table 1): pT60, acK129, pT137, pS258, pS265, pS312, acK401, acK519); test: native MS; intact His-tagged eIF2 purified from yeast, buffer exchanged against 500 mM ammonium acetate; QSTAR XL modified for high-mass complexes; tandem MS of the 24+ charge state of intact eIF2; details: both partners purified
T1 construct: eIF2 γ-subunit, encoded by GCD11 in yeast Saccharomyces cerevisiae (the methods print the plasmid's gene as '6xHisGCD22'); also called GCD11; source: S. cerevisiae strain GP3511 overexpressing the three eIF2 subunits

[2] = molecular target: B1; test: cross-linking; purified apo eIF2 with a 1:1 mixture of 2.5 mM BS3-d0/d4, 1 h, room temperature; gel, trypsin, LC-MS/MS; also compared with the ternary complex (Met-tRNAi^Met, GDPNP) by BS3-d0 against BS3-d4; details: both partners purified

T1 sequence (P32481 whole entry): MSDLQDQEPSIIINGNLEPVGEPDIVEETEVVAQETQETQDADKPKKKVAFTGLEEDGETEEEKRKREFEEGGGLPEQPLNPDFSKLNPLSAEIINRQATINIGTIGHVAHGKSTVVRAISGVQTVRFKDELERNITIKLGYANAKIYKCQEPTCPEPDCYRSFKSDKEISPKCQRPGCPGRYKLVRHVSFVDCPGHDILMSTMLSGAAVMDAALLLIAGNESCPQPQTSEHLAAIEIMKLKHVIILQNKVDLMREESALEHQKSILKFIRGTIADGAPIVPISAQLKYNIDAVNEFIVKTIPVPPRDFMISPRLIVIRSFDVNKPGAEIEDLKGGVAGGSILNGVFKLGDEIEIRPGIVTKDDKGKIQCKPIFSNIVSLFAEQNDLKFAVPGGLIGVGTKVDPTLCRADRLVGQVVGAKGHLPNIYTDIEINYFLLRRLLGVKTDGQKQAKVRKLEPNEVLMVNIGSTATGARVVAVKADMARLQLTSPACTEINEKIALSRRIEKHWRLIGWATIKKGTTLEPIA

Binder | stoichiometry N [1] | binding result [2]
B1 | 1 | 
B2 | 1 | binds
